Assay results published in patent US20130209439A1, “INHIBITORS OF PDE4 BINDING TO HSP20” (THE UNIVERSITY COURT OF THE UNIVERSITY OF GLASGOW, priority 2010, published 2013).
Where no end group is shown, it is not given here.

How the values were obtained:
His-HSP20 / GST-PDE4D5 = target: T1, His-HSP20 / GST-PDE4D5 (Homo sapiens, UniProt O14558); assay: Hsp20/PDE4D5 ELISA assay with purified proteins; assay type: binding; conditions: increasing amounts of peptide
T1 construct: made in house; host or cells: E. coli (BL21 for His-Hsp20)
T1 sequence (O14558 1-160): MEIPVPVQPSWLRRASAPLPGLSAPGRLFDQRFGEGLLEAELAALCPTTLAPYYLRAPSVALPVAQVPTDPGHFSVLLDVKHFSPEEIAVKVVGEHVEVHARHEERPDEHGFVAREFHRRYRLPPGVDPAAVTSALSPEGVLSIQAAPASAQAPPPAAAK
Description: (§1) FIG. 6. Peptide disruption of the PDE4D-HSP20 complex promotes PKA phosphorylation on Ser16. A, Upper panel. HEK293 cells were transfected with HSP20 and PDE4D5. Immunoprecipitation of HSP20 done in the presence increasing concentrations of Peptide 906 (SEQ ID NO: 36) and Peptide control (SEQ ID NO: 37) were probed for PDE4D5. Lower panel. Densitometric analysis of amount of PDE4D5 in HSP20 immunoprecipitates normalised to expression level. Data representative of n=3. B, Purified preparations of HSP20-His and PDE4D5-GST were subject to an ELISA assay containing increasing amounts of ‘Peptide 906’ and ‘peptide control’. C, Upper panel, HSP20 was transfected into HEK293 cells and treated with ‘Peptide 906’ for indicated times. Cellular lysates were blotted for HSP20 and phospho-HSP20. Middle panel, HSP20 was transfected into HEK293 cells and treated with ‘Peptide 906’ or ‘peptide control’ for indicated times. Cellular lysates were blotted for HSP20 and phospho-HSP20. Lower panel, Densitometric analysis of phosphorylation of HSP20 normalised to expression level (n=3).
His-HSP20 and GST-PDE4D5 were purified as previously described. […] Plates were read as soon as possible using the luminescence program on a Packard Fusion plate reader (1 s reading per well). […]

PDE4D5-HSP20 complex = target: T2, PDE4D5-HSP20 complex (Homo sapiens, UniProt O14558); assay: Immunoprecipitation of HSP20 probed for PDE4D5, HEK293 cell lysate; assay type: binding; conditions: HEK293 cells transfected with HSP20 and PDE4D5, increasing peptide concentrations
T2 construct: containing the open reading frame of Hsp20 in pENTR221 vector, was used to generate pcDNA6.2-Hsp20; expressed in transfected cells; host or cells: HEK293 cells
T2 sequence (O14558 1-160): T1 sequence (O14558 1-160)
Description: as §1
(§2) HEK293B2 cells are a stable cell line overexpressing the GFP-tagged β2AR were cultured as previously described^48. […] Protein concentration of lysates were determined using the Bradford assay and all samples were equalised for protein concentration. […]

[1] = system: phospho-HSP20 in HEK293 cells; assay: HSP20 Ser16 phosphorylation in HSP20-transfected HEK293 cells treated with peptide; assay type: cell-based; conditions: 10 μM peptide, 0-120 min
Description: as §1
PolyFect transfection reagent was from Qiagen. […]
as §2

[2] = system: neonatal cardiac myocytes; assay: Cardiac myocyte cell size, manual cross-sectional area; assay type: cell-based, rat; conditions: 24 hour isoprenaline 10 μM, 30 min pre-treatment with 10 μM peptide
Description: FIG. 7. Peptide disruption of the PDE4D-HSP20 complex attenuates the hypertrophic response triggered by constant […]-agonist treatment. A, Upper panel. The area covered by isolated cardiac myocytes was used as a measure of cell size. Lower panel, Graphical depiction of the mean areas (N=100) of cells following 24 hours of indicated treatments. B, impedance measurements were used to calculate continuous normalised cell index using exCELLigence technology Normalised mean (n=4) cell index after 24 hours of indicated treatments.
Cardiomyocytes were plated out on gelatin (Sigma) pre-coated 6-well plates and placed in an incubator at 37° C. and an atmosphere of 5% CO2. After 24 h the cardiomyocytes were cultured in a serum-free condition for 48 h before experiments. The cardiomyocytes were then challenged for 24 h with either 10 μM isoprenaline alone or isoprenaline following a 30 min pre-treatment with 10 μM rolipram, 10 μM bs906 or 10 μM control peptide. Thereafter, cell size was determined on phase-contrast microscope. […] from randomly selected microscope images (400×) were captured digitally and analysed. Cross-sectional area was determined by the following formula: cross-sectional area=(radius)^2×π. Values are expressed as means±SE of five separate culture preparations. A f-test was performed to compare the two groups, and the P values are indicated.

In the case of “Peptide 906: stearoylated, cell-permeable disrupter peptide of PDE4D5 residues E468-K492 (SEQ ID NO: 36) (ENHHLAVGFKLLQEENSDIFQNLTK; also: stearoylated, site not given here)”, the “association between PDE4D5 and HSP20 in ELISA with purified proteins” value (His-HSP20 / GST-PDE4D5) is reported as “attenuated the association between PDE4D5 and HSP20”, the “association between PDE4D5 and HSP20 in immunoprecipitation from cellular lysate” value (PDE4D5-HSP20 complex) is reported as “attenuated the association between PDE4D5 and HSP20” and the “phosphorylation of HSP20 at Ser16” value [1] is reported as “robust and significant increase in the phosphorylation of HSP20 at Ser16”. For the same substance, the “cell size (cross-sectional area) of cardiac myocytes” value [2] was “could be rescued”.
